Laboratory results as given in patent US20100260765A1 (AstraZeneca / MedImmune, published 2010).

Assays:
Experiment in all cases: cell-based or functional assay
KDR [1] = target: T1, KDR (human, UniProt P35968 20-1356)
KDR [2] = target: T1, KDR; remark: listed apart in the source
KDR [3] = target: T1, KDR; remark: listed apart in the source
KDR [4] = target: T1, KDR; remark: listed apart in the source
KDR [5] = target: T1, KDR; remark: listed apart in the source

T1 sequence (P35968 20-1356): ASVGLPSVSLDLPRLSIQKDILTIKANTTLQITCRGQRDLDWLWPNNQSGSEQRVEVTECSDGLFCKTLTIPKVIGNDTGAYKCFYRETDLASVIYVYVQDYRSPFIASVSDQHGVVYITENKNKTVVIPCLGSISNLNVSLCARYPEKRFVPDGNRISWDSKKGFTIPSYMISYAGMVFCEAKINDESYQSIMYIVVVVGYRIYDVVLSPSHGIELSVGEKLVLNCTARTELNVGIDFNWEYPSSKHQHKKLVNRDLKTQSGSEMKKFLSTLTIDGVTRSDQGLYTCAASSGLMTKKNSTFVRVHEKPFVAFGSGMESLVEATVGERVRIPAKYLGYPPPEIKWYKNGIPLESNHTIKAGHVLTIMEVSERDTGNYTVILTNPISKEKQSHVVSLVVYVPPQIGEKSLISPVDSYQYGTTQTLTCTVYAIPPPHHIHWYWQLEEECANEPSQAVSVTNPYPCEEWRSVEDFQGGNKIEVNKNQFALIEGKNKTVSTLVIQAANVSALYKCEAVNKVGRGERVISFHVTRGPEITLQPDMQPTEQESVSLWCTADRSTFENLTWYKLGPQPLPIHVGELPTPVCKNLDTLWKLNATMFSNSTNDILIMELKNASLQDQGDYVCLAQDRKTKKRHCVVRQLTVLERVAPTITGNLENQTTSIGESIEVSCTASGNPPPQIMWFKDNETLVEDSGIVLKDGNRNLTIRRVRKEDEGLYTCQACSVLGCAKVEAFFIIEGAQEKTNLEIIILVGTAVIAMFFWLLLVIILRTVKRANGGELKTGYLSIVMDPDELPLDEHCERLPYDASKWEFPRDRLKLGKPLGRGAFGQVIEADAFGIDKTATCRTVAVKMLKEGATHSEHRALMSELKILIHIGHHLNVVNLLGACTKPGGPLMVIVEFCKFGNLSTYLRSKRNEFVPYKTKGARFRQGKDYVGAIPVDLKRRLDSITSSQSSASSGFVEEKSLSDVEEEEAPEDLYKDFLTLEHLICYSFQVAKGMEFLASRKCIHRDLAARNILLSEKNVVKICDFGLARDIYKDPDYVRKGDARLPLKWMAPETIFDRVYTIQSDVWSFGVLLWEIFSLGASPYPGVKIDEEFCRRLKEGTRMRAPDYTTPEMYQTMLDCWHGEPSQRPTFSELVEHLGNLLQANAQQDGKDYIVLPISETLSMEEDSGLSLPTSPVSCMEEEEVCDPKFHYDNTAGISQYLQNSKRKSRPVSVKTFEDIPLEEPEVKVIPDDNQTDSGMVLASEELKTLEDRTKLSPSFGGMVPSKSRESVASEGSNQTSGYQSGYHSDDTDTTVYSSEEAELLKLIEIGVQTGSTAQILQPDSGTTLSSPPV

Binder	Activity at 133 nM (% Inhibition), 24-hour Pre-incubation at 37° C., Average (KDR [1]) [%]	Activity at 133 nM (% Inhibition), 24-hour Pre-incubation at 37° C., N = 1 (KDR [1]) [%]	Activity at 133 nM (% Inhibition), 24-hour Pre-incubation at 37° C., N = 2 (KDR [1]) [%]	Activity at 133 nM (% Inhibition), 1-hour Pre-incubation at 4° C., Average (KDR [2]) [%]	Activity at 133 nM (% Inhibition), 1-hour Pre-incubation at 4° C., N = 1 (KDR [2]) [%]	Activity at 133 nM (% Inhibition), 1-hour Pre-incubation at 4° C., N = 2 (KDR [2]) [%]	Activity at 133 nM Antibody Concentration (% Survival Inhibition), Average (KDR [3]) [%]	Activity at 133 nM Antibody Concentration (% Survival Inhibition), N = 1 (KDR [3]) [%]	Activity at 133 nM Antibody Concentration (% Survival Inhibition), N = 2 (KDR [3]) [%]	% of Max VEGF KDR pTyr Activity (at 133 nM antibody concentration), Average (KDR [4]) [%]	% of Max VEGF KDR pTyr Activity (at 133 nM antibody concentration), N = 1 (KDR [4]) [%]	% of Max VEGF KDR pTyr Activity (at 133 nM antibody concentration), N = 2 (KDR [4]) [%]	% Inhibition of VEGF165-mediated 6-keto Prostaglandin F1α release at 133 nM Antibody Concentration, Average (KDR [5]) [%]	% Inhibition of VEGF165-mediated 6-keto Prostaglandin F1α release at 133 nM Antibody Concentration, N = 1 (KDR [5]) [%]	% Inhibition of VEGF165-mediated 6-keto Prostaglandin F1α release at 133 nM Antibody Concentration, N = 2 (KDR [5]) [%]
30F6 (antibody, V domains shown) VH: QVQLVESGGGVVQPGRSLRLSCAASGFTFSTYGMHWVRQAPGKGLEWVAVIWYDGSNKYYADSVKGRFTISRDNSKNTLYLQMNSLRAEDTAVYYCACSYWNDDYYYGMDVWGQGTTVTVSS VL: DIQMTQSPSSLSASVGDRVIITCRASQNISSYLIWYQQKPGKAPNLLIHTTSSLQRGVPSRFSGSGSGTDFTLTISSLQPEDFATYYCQQSYSAPLTFGGGTKVEIK	55	60	51	84	84	85	82	91	74	13	14	13	79	68	89
29A3 (antibody, V domains shown) VH: QVQLQESGPGLVKPSETLSLTCTVSGGSISSYFWSWIRQPAGKGLEWIGRIYFSGRTNYNPSLKSRVTMSVETSKNQFSLKLNSVTAADTAVYYCARDGGWNYDVAFDYWGQGTLVTVSS VL: QAVLTQPSSLSASPGASASLTCTLRSGINVGTYRIYWYQQKPGSPPQYLLRYKSDSDQLQGSGVPSRFSGSKDASANAGILLISGLQSEDEADYYCMVWHSNTWVFGGGTKLTVL	11	7	15	23	25	20	-111	-65	-156	16	15	17	13	11	16
30H10 (antibody, V domains shown) VH: EVQLLESGGGLVQPGGSLRLSCAASGFTFSNYAMSWVRQAPGKGLEWVSAISGSGGITYYADSVKGRFTISRDNSKNTLFLQMNSLRAEDTAVYYCAKASGDNWGQGTLVSVSS VL: not shown	62	48	77	26	31	21	-115	-84	-147	12	12	13	10	10	
24B3 (antibody, V domains shown) VH: EVQLVESGGGLVKPGGSLRLSCAASGFTFSTYSMNWVRQAPGKGLEWVSFISGRSSYIYYADSVKGRFTISRDNAKNSLYLQMNSLRAEDTAVYYCSKDDWFEELWGQGTLVTVSS VL: DIQMTQSPSSLSASVGDRVTITCRASQGIRSDLGWYQQKPGKAPKRLIYATSSLQSGVPSRFSGSGSGTEFTLTISSLQPEDFATYYCLQHNRYPWTFGQGTKVEIK	72	76	69	80	80	80	65	65	64	14	12	15	68	66	70
32C11 (antibody, V domains shown) VH: EVQLLESGGTLVQPGGSLRLSCAASGFTFSNYAMSWVRQAPGKGLEWVSAISGRAGSTYYADSVKGRFTISRDNSKNTLFLQMNSLRAEDTAVYYCAKASGDDWGQGTLVTVSS VL: not shown	73	73	73	27	32	21	-91	-95	-87	10	9	11	9	6	11
31E11 (antibody, V domains shown) VH: QVQLVESGGGLVKPGGSLRLSCAASGFTFSDYYMSWIRQAPGKGLEWVSYISISGSTIYYADSVKGRFTISRDNAKNSLYLQMNSLRAEDTAVYYCARDDFWSGYYFNWFDPWGQGTLVTVSS VL: DIQMTQSPSSLSASVGDRVTITCRANQTISTFLNWYQQNPGKAPKLLIYAASSLQSGVPSRFSGSGSGTDFTLTISSLQPEDFATYYCQQTYIIPLTFGGGTKVEIK	69	90	48	81	82	80	89	83	95	5	4	6	114	130	98
33E1 (antibody, V domains shown) VH: QVQLQESGPGLVKPSQTLSLTCTVSGGSISSGDHYWSWIRQHPGKGLEWIGHIYYSGSTDYNPSLKSRVTISVDTSKNHFSLKLNSVTAADTAVYYCARTNSSSWSDWYFDLWGRGTLVTVSS VL: DIVMTQSPDSLAVSLGERATINCKSSQSILYSSNNKNYLAWYQRKPGQPPILLIHWASTRESGVPDRFSGSGSRTDFTLTISSLQAEDVAVYYCQQYFITPWTFGQGTKVEIK	77	85	68	77	78	75	92	86	97	8	5	10	113	128	98
24C9 (antibody, V domains shown) VH: EVQLVESGGGLVKPGGSLRLSCAASGFTFSTYSMNWVRQAPGKGLEWVSFISGRSSYIYYADSVKGRFTISRDNAKNSLYLQMNSLRAEDTAVYYCSKDDWFEELWGQGTLVTVSS VL: DIQMTQSPSSLSASVGDRVTITCRASQGIRNDLGWYQQKPGKAPKRLIYATFSLQSGVPSRFSGSGSGTEFTLTISSLQPEDFATYYCLQHNRYPWTFGQGTKVEIK	46	46		81	81		57	57		13	13		91	91	
